From paper PMC5291321

Biological target: full-length Cbln1 (Cbln1FL) (human) (UniProt P23435)
Assay: ITC

Sequence of full-length Cbln1 (Cbln1FL) (human) (P23435 22-193): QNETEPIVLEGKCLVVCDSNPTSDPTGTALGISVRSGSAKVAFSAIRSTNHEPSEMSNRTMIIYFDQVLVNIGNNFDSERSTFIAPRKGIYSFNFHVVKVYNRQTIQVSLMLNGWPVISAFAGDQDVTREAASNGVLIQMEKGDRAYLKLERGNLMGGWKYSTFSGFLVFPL

With “β-neurexin-1 with spliced sequence #4 (β-NRX1(+4)) (domain or fragment)” the Kd was 43.5 nM and the stoichiometry N (β-NRX1(+4) per Cbln1 hexamer) was 1.
